Results from patent publication US7033766B2, “Construction and screening of lantibody display libraries” (University of Maryland Office of Technology …, priority 2000, dated 2006).

Tested on: anti-sublancin antibodies
Test: binding of anti-sublancin polyclonal antibodies to the displayed peptide (peroxidase colour reaction, magnetic beads)
Conditions: rabbit antibodies raised against sublancin-KLH conjugate
Method: The transformed host was cultured in Medium A to allow the Lantibody Display Peptide to be expressed. Expression was monitored by observing the appearance of the Display Peptide in the cytoplasm of the cell, the membrane, the cell wall and in the extracellular medium. The peptide was detected using polyclonal antibodies raised in rabbits against a sublancin-KLH conjugate as an antigen.
To explore this hypothesis, cells expressing the Lantibody Display Peptide as shown in FIG. 8 were centrifuged out of the culture medium and resuspended in buffer. The cell suspension was treated with anti-sublancin antibodies, and washed to remove any unbound antibody. To determine whether anti-sublancin antibodies were bound to the surface of the cells, goat anti-rabbit antibodies that were conjugated with horseradish peroxidase were added and allowed to adsorb to any antibodies on the surface of the cells. The cells were washed and the peroxidase color reagent was added.

B1: sublancin Display Peptide: mature sublancin segment (1–37), a 20-residue polyglycine spacer (38–57) and the subtilin leader segment (58–81) (protein)
chain: MEKLFKEVKLEELENQKGSGLGKAQCAALWLQCASGGTIGCGGGAVACQNYRQFCRGGGGGGGGGGGGGGGGGGGGMSKFDDFDLDVVKVSKQDSKITPQ
modifications: The peptide sequence of sunA-PG20-SL.
With B1 the “binding to polyclonal anti-sublancin antibody” value was “recognize and bind to a target substrate” and the “binding to polyclonal anti-sublancin antibody” value (listed as Sublancin Display Peptide) was “responsible for the binding to sublancin antibodies”.
